Experimental data reported in publication PMC2955587, “Novel β-N-acetylglucosaminidases from Vibrio harveyi 650: Cloning, expression, enzymatic properties, and subsite identification” (BMC Biochemistry, 2010).

B1: VhNag2 (Vibrio harveyi) (protein)
chain: EYRVDLVVLSEQKQNCRFGLTFHNLSDQDLNSWGLTFAFDRYILPDSVSNGQLTQIGSFCTLKPEGIVLAANHHYYCEFSIGSNPFRYYSDGFNEAMIDFVVDGQPQRAQVDVTPIVLASPYRERSDIPASLTHAQPLLPKPNHIEVSDHSFTFDEQAGVAIYTDLANSAKAWLLEELQRIHQFTLSSSNSGKIIFKSNPTLDEGAYKLKVSEESIKIEAGSSSGFTHACATLLQLLKRDEATKTMEAVCCSIIDSPRFRYRGMMLDCARHFHSVEQVKRLINLLAHYKLNTFHWHLTDDEGWRVEIKSLPQLTEIGAWRGIDETIEPQYTHLSQRYGGFYTQEEIRDVIAFAEQRGITIIPEIDVPGHCRAAIKSLPHLLIEAEDTTEYRSIQHYNDNVINPALPGSYEFIDKVLEEIAALFPAPYVHIGADEVPNGVWSKSPACQALMEQLGYTDYKELQGHFLRHAEDKLRKLGKRMLGWEEAQHGNKVSKDTVIYSWLSEEAALNCARQGFDVVLQPAQTTYLDMTQDYAPEEPGVDWANPLPLEKAYNYEPLAEVPADDPIRKRIWGIQTALWCEIINNPSRMDYMIFPRLTAMAEACWTEKQHRDWTDYLSRLKGHLPLLDLQGVNYRKPWK
notes: full-length, 1,926 bp, 73,143 Da, C-terminal His6 (pQE60), E. coli M15, Ni-NTA; no signal peptide predicted

Tests used:
[1] = tested on: CC(=O)N[C@H]1[C@H](Oc2ccc([N+](=O)[O-])cc2)O[C@H](CO)[C@@H](O)[C@@H]1O; assay: purified protein; details: 0.1 M phosphate pH 7.0, 37°C, 0-500 μM substrate, enzyme unstable
Source text: initial rates, reducing sugar (DNS) assay, nonlinear regression on VhNag1

[2] = substrate: CC(=O)N[C@H]1[C@H](Oc2ccc([N+](=O)[O-])cc2)O[C@H](CO)[C@@H](O)[C@@H]1O; assay: initial rates, reducing sugar (DNS) assay, nonlinear regression; type: biochemical, Vibrio harveyi; details: 0.1 M phosphate pH 7.0, 37°C, 0-500 μM substrate
Source text: initial rates, reducing sugar (DNS) assay, nonlinear regression on VhNag2

Molecule | Km [1] [µM] | kcat [1] [s⁻¹] | kcat/Km [1] [M⁻¹ s⁻¹] | Km [2] [µM] | kcat [2] [s⁻¹] | kcat/Km [2] [M⁻¹ s⁻¹]
VhNag1 (Vibrio harveyi) | 172 ± 48 | 0.08 | 465 |  |  | 
B1 |  |  |  | 77 ± 17 | 0.38 | 4940
